Source: patent US20230087785A1, “Leucine-Rich Repeat Kinase 2 Allosteric Modulators” (VIB VZW, priority 2020, published 2023)

Target: T1, LRRK2 (wild-type) (Homo sapiens, UniProt Q5S007, M2397T/R50H)
T1 construct: Full-length human LRRK2 was expressed and purified based on previously developed protocols; SF tag (FLAG-tag + Twin-Strep-tag); made in house; host or cells: HEK 293T
Assay: In vitro peptide phosphorylation (PhosphoSens kinase) assay
Format: biochemical
Settings: 25 μM Nb; 10 μM AQT0615 peptide
Method: FIGS. 4A and 4B. Modulation of in vitro kinase activity by LRRK2-targeting Nbs. (FIG. 4A) Effect of selected LRRK2-targeting Nbs on LRRK2 kinase activity measured using the fluorescence-based PhosphoSens® Protein Kinase Assay, using the LRRK2-optimized AQT0615 peptide as substrate at a fixed concentration of 10 μM, and in the presence of 1 mM or 0.1 mM ATP, respectively. The influence of the different Nbs at a concentration of 25 μM on the relative kinase activity compared to the control where no Nb was added (“No Nb”) is plotted. […] (FIG. 4B) The influence of the different Nbs (25 μM) on the relative kinase activity compared to the “No-Nb” control is plotted, either in presence of 500 μM GDP (top) or 500 μM GTPγS (bottom). […] Each bar reflects the average (±SD) of three independent measurements.
Hereto, we used the fluorescence-based PhosphoSens® Protein Kinase Assay (AssayQuant Technologies Inc.), using the LRRK2-optimized AQT0615 peptide as substrate at a fixed concentration of 10 μM. The increase in fluorescence (Δexc:360 nm; Δemm:485 nm) due to LRRK2-catalyzed peptide phosphorylation was measured continuously in time under initial rate conditions at an ATP concentration of either 0.1 and 1 mM. Subsequently, the 10 Nbs were added at a final concentration of 25 μM and the effect on the initial rate was determined in triplicate (FIG. 4A). Two negative controls, where either no Nb or an irrelevant Nb was added, were also included. […] These experiments were performed in addition with LRRK2 either in the presence of a large excess (500 μM) of GDP or GTPγS (FIG. 4B), but no significant influence of the nucleotide on the inhibition profile was observed.
The Nb concentration was varied from 200 or 150 μM to 0.006 μM in a two-fold serial dilution, while keeping the peptide and ATP substrate concentrations constant at 10 μM and 1 mM, respectively (FIG. 11A-C).
The influence of the purified Nbs on LRRK2 kinase activity was determined using the PhosphoSens® Protein Kinase Assay (AssayQuant Technologies Inc.) using the optimized LRRK2 AQT0615 peptide as substrate and according to the manufacturers' instructions. The continuous kinase assay was performed in a total volume of 50 μL in a black half area 96 well plate. Each reaction mixture contained 10 μM AQT0615 peptide substrate/probe, either 0.1 mM or 1 mM ATP and 500 μM of either GDP, or GTPγS in a buffer consisting of 50 mM HEPES pH 7.5, 0.1% Brij-35, 50 mM NaCl and 10 mM MgCl2. The reaction was initiated by addition of a final concentration of 80 nM of LRRK2 either in absence or presence of 25 μM Nb. Prior to addition, LRRK2 and the Nbs were pre-incubated for 30 minutes on ice. The LRRK2-catalyzed phosphorylation of the peptide substrate/probe is followed continuously at 30° C. in a plate reader with excitation and emission wavelength of 360 nm and 485 nm respectively. Time traces were corrected by subtracting the “no LRRK2” control. The initial rates were determined from the slope of the linear portion of the curve.
To determine IC50 values the Nb concentration was varied from 150 μM to 0.006 μM using a two-fold serial dilution. In these assays a final LRRK2 concentration of 150 nM and an ATP concentration of 1 mM was used. The relative LRRK2 activity (compared to the “no nanobody” control) was plotted against the logarithmic Nb concentration and fitted on a three-parameter log(inhibitor) vs response equation in the GraphPad Prism software. All time traces were collected in triplicate.

T1 sequence (Q5S007 whole entry R50H/M2397T): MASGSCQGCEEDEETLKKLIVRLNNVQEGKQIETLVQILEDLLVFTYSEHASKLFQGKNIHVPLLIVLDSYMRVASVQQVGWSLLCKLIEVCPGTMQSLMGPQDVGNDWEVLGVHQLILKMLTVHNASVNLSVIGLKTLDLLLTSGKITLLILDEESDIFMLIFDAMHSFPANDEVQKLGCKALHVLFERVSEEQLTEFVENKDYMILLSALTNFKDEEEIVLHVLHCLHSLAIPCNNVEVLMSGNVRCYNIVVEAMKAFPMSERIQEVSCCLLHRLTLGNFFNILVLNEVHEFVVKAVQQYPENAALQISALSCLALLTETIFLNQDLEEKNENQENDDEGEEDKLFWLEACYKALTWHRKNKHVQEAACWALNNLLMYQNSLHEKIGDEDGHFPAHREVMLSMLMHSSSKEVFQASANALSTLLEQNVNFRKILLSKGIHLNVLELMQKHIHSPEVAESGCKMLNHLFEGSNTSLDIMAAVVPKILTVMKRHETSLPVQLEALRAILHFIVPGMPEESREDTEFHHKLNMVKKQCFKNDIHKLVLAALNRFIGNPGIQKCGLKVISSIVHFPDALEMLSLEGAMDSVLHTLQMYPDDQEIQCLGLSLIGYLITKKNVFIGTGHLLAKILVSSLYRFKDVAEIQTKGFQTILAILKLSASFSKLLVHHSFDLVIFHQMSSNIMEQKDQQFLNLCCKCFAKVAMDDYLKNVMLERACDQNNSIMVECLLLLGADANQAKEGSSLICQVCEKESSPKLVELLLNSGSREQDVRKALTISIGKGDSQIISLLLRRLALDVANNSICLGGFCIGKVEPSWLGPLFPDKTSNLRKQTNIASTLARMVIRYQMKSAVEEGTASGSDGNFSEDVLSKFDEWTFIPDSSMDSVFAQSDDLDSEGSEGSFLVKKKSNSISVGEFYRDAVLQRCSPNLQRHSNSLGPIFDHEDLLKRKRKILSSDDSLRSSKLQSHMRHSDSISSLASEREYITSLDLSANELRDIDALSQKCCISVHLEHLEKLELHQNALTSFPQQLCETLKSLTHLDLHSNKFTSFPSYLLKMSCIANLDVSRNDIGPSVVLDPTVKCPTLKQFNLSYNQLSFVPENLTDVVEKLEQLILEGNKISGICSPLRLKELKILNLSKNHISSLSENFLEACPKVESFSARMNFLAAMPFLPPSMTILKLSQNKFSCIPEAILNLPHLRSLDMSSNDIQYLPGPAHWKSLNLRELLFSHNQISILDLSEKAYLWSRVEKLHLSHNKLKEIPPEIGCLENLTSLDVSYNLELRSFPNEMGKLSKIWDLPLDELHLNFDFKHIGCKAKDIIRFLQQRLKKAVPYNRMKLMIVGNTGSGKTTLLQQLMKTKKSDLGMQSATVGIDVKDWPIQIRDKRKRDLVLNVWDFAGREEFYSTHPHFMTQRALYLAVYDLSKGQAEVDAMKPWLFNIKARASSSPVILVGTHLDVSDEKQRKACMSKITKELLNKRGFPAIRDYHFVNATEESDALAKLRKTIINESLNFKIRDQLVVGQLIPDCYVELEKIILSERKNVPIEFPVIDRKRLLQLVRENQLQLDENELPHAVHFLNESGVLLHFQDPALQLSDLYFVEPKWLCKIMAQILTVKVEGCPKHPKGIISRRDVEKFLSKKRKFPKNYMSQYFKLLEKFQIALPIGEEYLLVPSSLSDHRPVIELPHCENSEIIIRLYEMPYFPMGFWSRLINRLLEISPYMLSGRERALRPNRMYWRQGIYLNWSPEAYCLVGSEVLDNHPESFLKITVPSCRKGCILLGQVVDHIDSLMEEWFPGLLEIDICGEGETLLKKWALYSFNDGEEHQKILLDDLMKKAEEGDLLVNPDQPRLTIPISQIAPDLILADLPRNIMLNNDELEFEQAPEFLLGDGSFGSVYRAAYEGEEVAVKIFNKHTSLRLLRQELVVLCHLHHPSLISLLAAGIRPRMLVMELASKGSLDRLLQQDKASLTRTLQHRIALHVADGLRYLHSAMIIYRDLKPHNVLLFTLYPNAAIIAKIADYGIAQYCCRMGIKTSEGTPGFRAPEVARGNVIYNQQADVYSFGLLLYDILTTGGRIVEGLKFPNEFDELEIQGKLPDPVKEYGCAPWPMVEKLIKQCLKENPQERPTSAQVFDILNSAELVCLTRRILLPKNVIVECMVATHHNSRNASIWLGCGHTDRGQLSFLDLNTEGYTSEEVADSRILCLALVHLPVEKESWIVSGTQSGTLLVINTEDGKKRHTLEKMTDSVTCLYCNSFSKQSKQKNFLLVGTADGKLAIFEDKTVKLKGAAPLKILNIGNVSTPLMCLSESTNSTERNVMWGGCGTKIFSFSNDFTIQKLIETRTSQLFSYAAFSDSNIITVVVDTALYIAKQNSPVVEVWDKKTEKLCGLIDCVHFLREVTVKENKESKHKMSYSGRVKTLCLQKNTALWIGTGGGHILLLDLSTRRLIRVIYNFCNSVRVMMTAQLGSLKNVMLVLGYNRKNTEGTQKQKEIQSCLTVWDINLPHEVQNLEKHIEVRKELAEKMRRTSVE

B1: Nb22: LRRK2-specific Nanobody, SEQ ID NO: 9 (protein)
VHH: MAQVQLVESGGGLVQAGGSLRLSCAASGRTFSSYTMGWFRQAPGKEREFVAAIRWSGGSTYYADSVKGRFTISRDNAKNTVYLQMNSLKPEDTAVYYCAASDRGGFIATSGGWMDYWGKGTQVTVSS
modifications: Nanobody CA13611
effect on in vitro LRRK2 kinase activity: activates the kinase activity of LRRK2 in vitro

B2: Nb6: LRRK2-specific Nanobody, SEQ ID NO: 2 (protein)
VHH: MAQVQLVESGGGLVQAGGSLRLSCAASGSIFSPTAMGWYRQAPGKERELVAGITSGGYTNYRNFARGRFTISRDNAKKTVYLQMNSLNPEDTAVYYCNTLTISWSWGQGTQVTVSS
modifications: Nanobody CA12618
effect on in vitro LRRK2 kinase activity: very clear significant inhibiting effect

B3: Nb23: LRRK2-specific Nanobody, SEQ ID NO: 3 (protein)
VHH: MAQVQLVESGGGLVQAGGSLRLSCAASGRTFSRYTMGWFRQAPGKDREFVARITTSGAVTTYADSAKGRFTISRDNAKNTVYLQMNTLKPEDTAVYYCAAGQGQLSSQSRFVDYWGQGTQVTVSS
modifications: Nanobody CA13612
effect on in vitro LRRK2 kinase activity: (to a lesser extent) Nb23 (CA13612), have a very clear significant inhibiting effect

B4: Nb1: LRRK2-specific Nanobody, SEQ ID NO: 1 (protein)
VHH: MAQVQLVESGGGLVQAGGSLRLSCVASGRIFSGNAMGWYRQAPGRQRELVAGITNGGYTNYRQFVKGRFTISRDNAKRTVYLQMNSLKPEDTAVYYCNALDREARQVDYWGQGTQVTVSS
modifications: Nanobody CA12610
effect on in vitro LRRK2 kinase activity: very clear significant inhibiting effect

B5: Nb42: LRRK2-specific Nanobody, SEQ ID NO: 6 (protein)
VHH: MAQVQLVESGGGLVQAGGSLRLSCAASGDVNYAVGWFRQAPRKEREFVAAINWRGDNTDYTDSVKGRFTISRDNAKNTVYLQMNSLKPEDTAVYYCAAKSAPYWYSDIAPDYWGQGTQVTVSS
modifications: Nanobody CA14259
effect on in vitro LRRK2 kinase activity: no inhibitory effect could be observed in vitro
